From publication PMC10397247
Read-outs that look alike come from different tables or passages of the source.

Tests used:
[1] = target: T1, 4H675-AA; assay: two-hybrid library CCmax;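 note: natural log of median RNA to DNA barcode read ratio; higher means stronger binding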
T1 chain: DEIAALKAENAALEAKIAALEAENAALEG

[2] = target: T2, 4H971-AA; assay: two-hybrid library CCmax; settings: mean of both orientations;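 note: natural log of median RNA to DNA barcode read ratio; higher means stronger binding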
T2 chain: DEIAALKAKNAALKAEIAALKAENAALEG

[3] = target: T3, 4H570-AA; assay: two-hybrid library CCmax; settings: mean of both orientations;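 note: natural log of median RNA to DNA barcode read ratio; higher means stronger binding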
T3 chain: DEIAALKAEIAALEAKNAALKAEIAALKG

[4] = target: T4, 4H710-AA; assay: two-hybrid library CCmax; settings: mean of both orientations;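 note: natural log of median RNA to DNA barcode read ratio; higher means stronger binding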
T4 chain: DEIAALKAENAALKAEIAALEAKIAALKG

[5] = target: T5, 4H3865-AA; assay: two-hybrid library CCmax; settings: mean of both orientations;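 note: natural log of median RNA to DNA barcode read ratio; higher means stronger binding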
T5 chain: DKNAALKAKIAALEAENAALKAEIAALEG

[6] = target: T6, 4H458-AA; assay: two-hybrid library CCmax; settings: mean of both orientations;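 note: natural log of median RNA to DNA barcode read ratio; higher means stronger binding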
T6 chain: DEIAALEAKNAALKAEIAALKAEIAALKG

[7] = target: T7, 4H850-AA; assay: two-hybrid library CCmax; settings: mean of both orientations
T7 chain: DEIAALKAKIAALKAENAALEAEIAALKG

[8] = target: T8, 4H384-AA; assay: two-hybrid library CCmax; settings: mean of both orientations
T8 chain: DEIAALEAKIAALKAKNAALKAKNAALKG

[9] = target: T9, 4H3753-AA; assay: two-hybrid library CCmax; settings: mean of both orientations
T9 chain: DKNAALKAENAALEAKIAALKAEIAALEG

[10] = target: T10, 4H94-AA; assay: two-hybrid library CCmax; settings: mean of both orientations
T10 chain: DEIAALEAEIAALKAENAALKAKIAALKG

[11] = target: T11, 4H930-AA; assay: two-hybrid library CCmax; settings: mean of both orientations
T11 chain: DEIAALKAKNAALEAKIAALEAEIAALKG

[12] = target: T12, 4H745-AA; assay: two-hybrid library CCmax; settings: mean of both orientations
T12 chain: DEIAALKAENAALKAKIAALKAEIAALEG

[13] = target: T13, 4H3697-AA; assay: two-hybrid library CCmax
T13 chain: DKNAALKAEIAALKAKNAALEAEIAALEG

[14] = target: T14, 4H485-AA; assay: two-hybrid library CCmax; settings: mean of both orientations
T14 chain: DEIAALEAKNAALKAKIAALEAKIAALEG

[15] = target: T15, 4H3718-AA; assay: two-hybrid library CCmax; settings: mean of both orientations
T15 chain: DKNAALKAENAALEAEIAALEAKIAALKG

[16] = target: T16, 4H536-AA; assay: two-hybrid library CCmax; settings: mean of both orientations
T16 chain: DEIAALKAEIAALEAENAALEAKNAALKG

[17] = target: T17, 4H697-AA; assay: two-hybrid library CCmax; settings: mean of both orientations
T17 chain: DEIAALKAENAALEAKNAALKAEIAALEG

[18] = target: T18, 4H629-AA; assay: two-hybrid library CCmax; settings: mean of both orientations
T18 chain: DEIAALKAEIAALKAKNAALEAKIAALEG

[19] = target: T19, 4H797-AA; assay: two-hybrid library CCmax; settings: mean of both orientations
T19 chain: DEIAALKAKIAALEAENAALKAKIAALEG

[20] = target: T20, 4H891-AA; assay: two-hybrid library CCmax; settings: mean of both orientations
T20 chain: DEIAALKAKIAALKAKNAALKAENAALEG

[21] = target: T21, 4H909-AA; assay: two-hybrid library CCmax; settings: mean of both orientations
T21 chain: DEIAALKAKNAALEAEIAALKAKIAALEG

[22] = target: T22, 4H982-AA; assay: two-hybrid library CCmax; settings: mean of both orientations
T22 chain: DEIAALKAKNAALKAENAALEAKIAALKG

[23] = target: T23, 4H906-bH; assay: two-hybrid library CCNG1
T23 chain: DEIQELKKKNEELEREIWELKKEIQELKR

[24] = target: T24, 4H656-AA; assay: two-hybrid library CCmax
T24 chain: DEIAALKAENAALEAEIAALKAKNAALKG

[25] = target: T25, 4H497-AA; assay: two-hybrid library CCmax
T25 chain: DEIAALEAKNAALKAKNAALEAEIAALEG

[26] = target: T26, 4H478-AA; assay: two-hybrid library CCmax
T26 chain: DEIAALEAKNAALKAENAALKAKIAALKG

[27] = target: T27, 4H717-AA; assay: two-hybrid library CCmax; settings: mean of both orientations
T27 chain: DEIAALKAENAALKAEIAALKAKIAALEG

[28] = target: T28, 4H3921-AA; assay: two-hybrid library CCmax
T28 chain: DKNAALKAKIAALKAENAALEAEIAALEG

[29] = target: T29, 4H566-AA; assay: two-hybrid library CCmax; settings: mean of both orientations
T29 chain: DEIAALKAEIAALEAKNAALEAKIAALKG

[30] = target: T30, 4H780-AA; assay: two-hybrid library CCmax; settings: mean of both orientations
T30 chain: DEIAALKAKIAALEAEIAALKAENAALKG

[31] = target: T31, 4H906-AA; assay: two-hybrid library CCmax; settings: mean of both orientations
T31 chain: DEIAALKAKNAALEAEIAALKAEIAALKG

[32] = target: T32, 4H678-AA; assay: two-hybrid library CCmax; settings: mean of both orientations
T32 chain: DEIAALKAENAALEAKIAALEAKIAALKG

[33] = target: T33, 4H429-AA; assay: two-hybrid library CCmax; settings: mean of both orientations
T33 chain: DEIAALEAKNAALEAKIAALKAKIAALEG

[34] = target: T34, 4H454-AA; assay: two-hybrid library CCmax; settings: mean of both orientations
T34 chain: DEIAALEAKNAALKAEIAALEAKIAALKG

[35] = target: T35, 4H881-AA; assay: two-hybrid library CCmax; settings: mean of both orientations
T35 chain: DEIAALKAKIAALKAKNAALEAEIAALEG

[36] = target: T36, 4H605-AA; assay: two-hybrid library CCmax; settings: mean of both orientations
T36 chain: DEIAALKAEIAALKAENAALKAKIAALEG

[37] = target: T37, 4H993-AA; assay: two-hybrid library CCmax; settings: mean of both orientations
T37 chain: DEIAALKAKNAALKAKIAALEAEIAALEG

[38] = target: T38, 4H794-AA; assay: two-hybrid library CCmax; settings: mean of both orientations
T38 chain: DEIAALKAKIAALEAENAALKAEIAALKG

Question: With DEIAALKAENAALEAKIAALEAENAALEG [4H675-AA] as the binder, how does the interaction score [1] read?
Answer: -1.72

Question: What about the interaction score [2] of the same binder?
Answer: 0.0439

Question: DKNAALKAEIAALKAKNAALEAEIAALEG [4H3697-AA] was tested. Which interaction score [3] did it give?
Answer: 0.23

Question: What about the interaction score [4] of the same binder?
Answer: -1.75

Question: What about the interaction score [5] of the same binder?
Answer: -1.52

Question: And the interaction score [6]?
Answer: -1.36

Question: What about the interaction score [7] of the same binder?
Answer: -0.0774

Question: What about the interaction score [8] of the same binder?
Answer: -0.953

Question: What about the interaction score [9] of the same binder?
Answer: -1.79

Question: And the interaction score [10]?
Answer: 1.01

Question: And the interaction score [11]?
Answer: -1.4

Question: What about the interaction score [12] of the same binder?
Answer: -1.64

Question: What about the interaction score [13] of the same binder?
Answer: -0.761

Question: What about the interaction score [14] of the same binder?
Answer: -0.973

Question: What about the interaction score [15] of the same binder?
Answer: -0.817

Question: What about the interaction score [16] of the same binder?
Answer: 0.0406

Question: And the interaction score [17]?
Answer: -1.53

Question: And the interaction score [18]?
Answer: -0.654

Question: And the interaction score [19]?
Answer: -1.44

Question: What about the interaction score [20] of the same binder?
Answer: -1.55

Question: What about the interaction score [21] of the same binder?
Answer: -1.21

Question: What about the interaction score [22] of the same binder?
Answer: -1.01

Question: How did the interaction score [23] turn out when DEIQELKKKNEELEREIWELKKEIQELKR [4H906-bH] was run?
Answer: 0.905

Question: With DEIAALEAKNAALKAKNAALEAEIAALEG [4H497-AA] as the binder, how does the interaction score ([24]; mean of both orientations) read?
Answer: -1.34

Question: And the interaction score [25]?
Answer: -1.57

Question: And the interaction score [1]?
Answer: -0.54

Question: What about the interaction score [2] of the same binder?
Answer: -2.19

Question: Which interaction score [24] does the source give for DEIAALKAENAALEAEIAALKAKNAALKG [4H656-AA] here?
Answer: 0.334

Question: What about the interaction score ([1]; mean of both orientations) of the same binder?
Answer: 0.797

Question: What about the interaction score [2] of the same binder?
Answer: 1.93

Question: Which results are given for DEIAALEAKNAALKAENAALKAKIAALKG [4H478-AA]?
Answer: interaction score [26]: 0.99; interaction score ([24]; mean of both orientations): -0.144; interaction score ([25]; mean of both orientations): -0.909; interaction score [1]: -1.76; interaction score [2]: -1.54

Question: For DKNAALKAKIAALKAENAALEAEIAALEG [4H3921-AA], which interaction score [27] is on record?
Answer: -1.37

Question: What about the interaction score [28] of the same binder?
Answer: -1.67

Question: What about the interaction score [29] of the same binder?
Answer: 0.811

Question: And the interaction score [30]?
Answer: -1.71

Question: And the interaction score [31]?
Answer: -1.62

Question: And the interaction score [32]?
Answer: -1.4

Question: And the interaction score [33]?
Answer: -0.196

Question: What about the interaction score [34] of the same binder?
Answer: 0.521

Question: What about the interaction score [35] of the same binder?
Answer: -0.834

Question: And the interaction score [36]?
Answer: -0.532

Question: What about the interaction score [37] of the same binder?
Answer: 0.874

Question: What about the interaction score [38] of the same binder?
Answer: -0.924
